Measurements from patent publication US20150007357A1, “Use Of Humanized Mice To Determine Toxicity” (Massachusetts Institute Of Technology, priority 2011, published 2015).
“Also recorded” adds a separate entry of the source.

Columns and labels:
[1] = tested on: cytokine-treated humanized mice (NSG engrafted with human HSCs, human IL-15 and Flt-3L plasmids); experiment: Serum human cytokine release after mAb injection in IL-15/Flt-3L cytokine-treated humanized mice; assay type: in vivo, mouse; conditions: for change in serum levels of human cytokines: vs saline control or baseline; for serum levels of human cytokines at 24 hours: 24 hours post-injection
Protocol: NSG mice were purchased from the Jackson Laboratories and maintained under specific pathogen-free conditions in the animal facilities at Nanyang Technological University and National University of Singapore. To reconstitute mice, newborn pups (less than 48 hours old) were irradiated with 100 cGy using a Gamma radiation source and injected intracardially with CD34+CD133+ cells ([…] cells/recipient). Human IL-15 and human Fltr-3 ligand were cloned separately into pcDNA3.1(+) vector (Invitrogen, USA) as described previously (Chen Q et al. (2009) Proc Natl Acad Sci, USA, 106:21783-21788). For hydrodynamic gene delivery, 12 week-old humice were injected with 50 μg of each plasmid in a total of 2 ml saline within 7 seconds using a 27 gauge needle. All research with human samples and mice was performed in compliance with the institutional guidelines.
(§1) The blood sampling at seven days post-cytokines treatment was used as the time point (−48 hours) for setting the baseline of the production levels of different cytokines and human cells absolute numbers and percentages. […] Blood samples were collected 2 and 24 hours after the mAb treatment, and all injected animals were euthanized at 24 hours.
(§2) Single cell suspensions were prepared from spleen by standard procedures. […] Cells were stained with appropriate antibodies in 100 μl PBS containing 0.2% BSA and 0.05% sodium azide for 30 min on ice. Flow cytometry was performed on a LSRII flow cytometer using the FACSDiva software (BD, Franklin Lakes, N.J.), and samples were analyzed using the Flowjo software. For cytokine detection, the concentration of human IL-2, IL-4, IL-6, IL-8, IL-1β, TNF-α, and IFN-γ were determined in sera using a BD Cytometric Bead Array (CBA) (BD Biosciences, USA). The experiments were conducted according to the manufacturer's recommendation and results were analyzed with the FCAP array software (Soft Flow Hungary, BD Biosciences).
NSG mice were purchased from the Jackson Laboratories and maintained under specific pathogen-free conditions in the animal facilities at Nanyang Technological University and National University of Singapore. To reconstitute mice, newborn pups (less than 48 hours old) were irradiated with 100 cGy using a Gamma radiation source and injected intracardially with CD34+CD133+ cells (1×10^5 cells/recipient). Human IL-15 and human Fltr-3 ligand were cloned separately into pcDNA3.1(+) vector (Invitrogen, USA) as described previously. For hydrodynamic gene delivery, 12 week-old humice were injected with 50 μg of each plasmid in a total of 2 ml saline within 7 seconds using a 27 gauge needle. All research with human samples and mice was performed in compliance with the institutional guidelines.
as §2, with “procedures. The following human conjugated antibodies were used for flow cytometry staining.” for “procedures.”, “IL-2,” for “IL-2, IL-4,”, “TNF-α, IFN-γ” for “TNF-α,”, “mouse IL-2, IL-6, IL-8” for “IFN-γ”

[2] = tested on: humanized mice treated with M-CSF human cytokine plasmid; experiment: Serum human cytokine release in humanized mice treated with human M-CSF plasmid; assay type: in vivo, mouse; conditions: 2 hours post-injection
Protocol: as §1
Single cell suspensions were prepared from spleen by standard procedures. The following human conjugated antibodies were used for flow cytometry staining. CD3, CD4, CD8, CD19, CD28, CD45, CD45RO, CCR7 from Biolegend; CD14 and CD56 from BD Biosciences (BD Biosciences, USA) and mouse CD45.1 from eBioscience. Cells were stained with appropriate antibodies in 100 μl PBS containing 0.2% BSA and 0.05% sodium azide for 30 min on ice. Flow cytometry was performed on a LSRII flow cytometer using the FACSDiva software (BD, Franklin Lakes, N.J.), and samples were analyzed using the Flowjo software. For cytokine detection, the concentration of human IL-2, IL-6, IL-8, IL-1β, TNF-α, IFN-γ and mouse IL-2, IL-6, IL-8 were determined in sera using a BD Cytometric Bead Array (CBA) (BD Biosciences, USA). The experiments were conducted according to the manufacturer's recommendation and results were analyzed with the FCAP array software (Soft Flow Hungary, BD Biosciences). […]

[3] = tested on: human T, B, NK cells and monocytes in cytokine-treated humanized mice; experiment: Immunophenotyping of human cell lineages in peripheral blood (flow cytometry) of cytokine-treated humanized mice; assay type: in vivo, mouse
Protocol: as §1
as §2, with “procedures. The following human conjugated antibodies were used for flow cytometry staining.” for “procedures.”, “IL-2,” for “IL-2, IL-4,”, “TNF-α, IFN-γ” for “TNF-α,”, “mouse IL-2, IL-6, IL-8” for “IFN-γ”

[4] = tested on: cytokine-treated humanized mice; experiment: Liver enzymes (AST, ALT) in cytokine-treated humanized mice; assay type: in vivo, mouse; conditions: 24 hours post-treatment
Protocol: as §1

[5] = tested on: cytokine-treated humanized mice; experiment: Serum mouse cytokines (mIL-2, mIFN-γ, mIL-6) in cytokine-treated humanized mice; assay type: in vivo; conditions: mice treated with IL-15 and FLT3L or M-CSF plasmid
Protocol: Single cell suspensions were prepared from spleen by standard procedures. The following human conjugated antibodies were used for flow cytometry staining. CD3, CD4, CD8, CD19, CD28, CD45, CD45RO, CCR7 from Biolegend; CD14 and CD56 from BD Biosciences (BD Biosciences, USA) and mouse CD45.1 from eBioscience. Cells were stained with appropriate antibodies in 100 μl PBS containing 0.2% BSA and 0.05% sodium azide for 30 min on ice. Flow cytometry was performed on a LSRII flow cytometer using the FACSDiva software (BD, Franklin Lakes, N.J.), and samples were analyzed using the Flowjo software. For cytokine detection, the concentration of human IL-2, IL-6, IL-8, IL-1β, TNF-α, IFN-γ and mouse IL-2, IL-6, IL-8 were determined in sera using a BD Cytometric Bead Array (CBA) (BD Biosciences, USA). The experiments were conducted according to the manufacturer's recommendation and results were analyzed with the FCAP array software (Soft Flow Hungary, BD Biosciences).

PBMCs = conditions: incubated in aqueous phase; previous study; cited from earlier work
[6] = 2 hours post-injection, 1 mg/kg i.v.
[7] = IL-15 and Flt-3L treated mice, 2 hours post-injection, 1 mg/kg i.v.
[8] = 2 and 24 hrs post-injection, 1 mg/kg

In the case of “OKT3: mouse mAb against human CD3 for suppressing renal allograft rejection (Biolegend)”, the “change in serum levels of human cytokines” value [1, 6] is reported as “significant increase in the circulating levels of IL-2, IL-6, IL-8 and IFN-γ”, the “serum levels of human cytokines at 24 hours” value ([1]; 1 mg/kg i.v.) is reported as “IL-2 expression was diminished 24-hours post injection, the other cytokines remained elevated” and the “serum levels of human IL-6” value [1, 7] is reported as 0.1318 ng/mL. The “serum levels of human IL-6” value [2] was 1.5128 ng/mL, the “serum levels of human IL-8” value [2] was 0.7226 ng/mL and the “NK cell numbers in peripheral blood” value [3, 8] was “transient decrease”. The “T cell numbers in peripheral blood” value [3, 8] was “complete depletion”, the “reduction of the CD14+ cells” value ([3]; 2 hours post-injection) was 4 fold and the “Aspartate aminotransferase (AST) level” value [4] was “did not induce a significatively increase”. For the same substance, the “mouse IL-6 (mIL-6) in sera” value [5] was “increase; also recorded: slightly increase” and the “mouse mIL-2 and mIFN-γ in sera” value [5] was “not”.

For “Alemtuzumab: humanized anti-CD52 antibody for treating chronic lymphocytic leukemia (Campath, Genzyme)”, the “change in serum levels of human cytokines” value [1, 6] was “increase in the serum levels of IL-2, IL-6, IL-8 and IL-1β”, the “serum levels of human cytokines at 24 hours” value ([1]; 1 mg/kg i.v.) was “most cytokines, except IL-1β, had returned to the baseline level” and the “serum levels of human IL-2” value ([1]; IL-15 and Flt-3L treated mice, 2 hours post-injection, 1 mg/kg) was 0.0316 ng/mL. The “serum levels of human IL-6” value [1, 7] was 0.0192 ng/mL, the “serum levels of human IL-8” value [1, 7] was 0.2241 ng/mL and the “B cell numbers in peripheral blood” value [3, 8] was “complete depletion”. For the same substance, the “NK cell numbers in peripheral blood” value [3, 8] was “complete depletion”, the “T cell numbers in peripheral blood” value [3, 8] was “complete depletion” and the “monocyte numbers in peripheral blood” value [3, 8] was “complete depletion; also recorded: only residual monocytes cell remaining at 24 hrs”. The “Aspartate aminotransferase (AST) level” value [4] was “did not induce a significatively increase”, the “mouse IL-6 (mIL-6) in sera” value [5] was “increase” and the “IL-2 response of PBMCs” value (PBMCs) was 14.0 pg/mL. For the same substance, the “IL-6 response of PBMCs” value (PBMCs) was 88 pg/mL and the “IL-8 response of PBMCs” value (PBMCs) was 6050 pg/mL.
